Laboratory results: publication doi:10.1101/471821
No end group written: not given here.

Target: purified HLA A*03:01 class I MHC molecules
Assay: radioligand binding

Binder	IC50 [µM]
IIIGVEPGQL (not fully specified)	> 5
DSYIIIGVEPGQLK (not fully specified)	2
